Reference: patent publication US20180305423A1 (OKLAHOMA MEDICAL RESEARCH FOUNDATION, published 2018)
Each block holds one binder with its values, some of them ahead of it.

Legend:
[1] = molecular target: T1, VEGFR2 (endogenous, HUVEC^αvβ3 cells) (human, UniProt P35968 20-1356); assay: co-IP with anti-VEGFR2 from HUVECαvβ3 cells, blot for Epn1, with quantification [panel B]
T1 construct: whole, on cells

[2] = molecular target: T2, IRS1 (insulin receptor substrate) (UniProt P35569 1-1233); assay: co-IP with anti-epsin 1 from 3T3-L1 pre-adipocytes with or without insulin, blot for IRS1
T2 sequence (looked up): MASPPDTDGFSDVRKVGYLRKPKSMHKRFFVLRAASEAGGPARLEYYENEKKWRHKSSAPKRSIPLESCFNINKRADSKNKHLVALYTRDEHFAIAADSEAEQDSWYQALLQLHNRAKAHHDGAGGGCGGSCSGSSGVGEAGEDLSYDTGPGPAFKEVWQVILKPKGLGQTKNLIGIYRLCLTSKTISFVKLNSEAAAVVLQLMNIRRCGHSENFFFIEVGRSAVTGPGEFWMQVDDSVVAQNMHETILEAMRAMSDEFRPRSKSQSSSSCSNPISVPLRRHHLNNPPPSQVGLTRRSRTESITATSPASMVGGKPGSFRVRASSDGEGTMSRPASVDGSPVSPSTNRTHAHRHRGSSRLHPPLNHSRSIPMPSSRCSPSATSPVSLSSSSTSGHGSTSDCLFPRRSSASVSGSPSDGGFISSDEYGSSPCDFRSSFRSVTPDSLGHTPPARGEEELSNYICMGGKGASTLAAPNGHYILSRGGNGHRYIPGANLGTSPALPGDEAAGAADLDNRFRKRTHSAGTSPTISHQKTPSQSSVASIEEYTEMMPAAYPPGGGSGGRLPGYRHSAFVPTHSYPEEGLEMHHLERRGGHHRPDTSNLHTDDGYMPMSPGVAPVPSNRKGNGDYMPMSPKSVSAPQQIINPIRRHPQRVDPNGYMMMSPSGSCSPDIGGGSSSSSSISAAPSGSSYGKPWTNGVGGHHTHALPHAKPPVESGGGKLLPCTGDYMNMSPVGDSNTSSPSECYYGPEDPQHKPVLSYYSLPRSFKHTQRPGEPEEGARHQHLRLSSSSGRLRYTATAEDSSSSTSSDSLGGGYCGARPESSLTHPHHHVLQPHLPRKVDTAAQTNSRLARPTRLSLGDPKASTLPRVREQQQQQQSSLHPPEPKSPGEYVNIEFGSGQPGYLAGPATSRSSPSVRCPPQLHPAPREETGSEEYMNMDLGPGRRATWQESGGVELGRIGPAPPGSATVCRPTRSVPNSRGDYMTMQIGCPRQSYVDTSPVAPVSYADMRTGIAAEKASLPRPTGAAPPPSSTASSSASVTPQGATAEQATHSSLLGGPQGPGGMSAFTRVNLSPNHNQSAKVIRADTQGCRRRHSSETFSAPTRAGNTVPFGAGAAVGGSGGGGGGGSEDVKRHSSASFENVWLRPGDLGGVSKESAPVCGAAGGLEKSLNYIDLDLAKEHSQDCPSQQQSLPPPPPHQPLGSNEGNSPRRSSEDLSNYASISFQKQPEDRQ

[3] = molecular target: T3, IP3R1 (IP3 receptor 1, ITPR1) (mouse, UniProt P11881 1-2749, limits assumed); assay: IP with epsin 1 antibody from oxLDL-treated MAEC, gel for mass spectrometry [panel A]
T3 construct: also called IP3 Receptors
T3 sequence (P11881 whole entry): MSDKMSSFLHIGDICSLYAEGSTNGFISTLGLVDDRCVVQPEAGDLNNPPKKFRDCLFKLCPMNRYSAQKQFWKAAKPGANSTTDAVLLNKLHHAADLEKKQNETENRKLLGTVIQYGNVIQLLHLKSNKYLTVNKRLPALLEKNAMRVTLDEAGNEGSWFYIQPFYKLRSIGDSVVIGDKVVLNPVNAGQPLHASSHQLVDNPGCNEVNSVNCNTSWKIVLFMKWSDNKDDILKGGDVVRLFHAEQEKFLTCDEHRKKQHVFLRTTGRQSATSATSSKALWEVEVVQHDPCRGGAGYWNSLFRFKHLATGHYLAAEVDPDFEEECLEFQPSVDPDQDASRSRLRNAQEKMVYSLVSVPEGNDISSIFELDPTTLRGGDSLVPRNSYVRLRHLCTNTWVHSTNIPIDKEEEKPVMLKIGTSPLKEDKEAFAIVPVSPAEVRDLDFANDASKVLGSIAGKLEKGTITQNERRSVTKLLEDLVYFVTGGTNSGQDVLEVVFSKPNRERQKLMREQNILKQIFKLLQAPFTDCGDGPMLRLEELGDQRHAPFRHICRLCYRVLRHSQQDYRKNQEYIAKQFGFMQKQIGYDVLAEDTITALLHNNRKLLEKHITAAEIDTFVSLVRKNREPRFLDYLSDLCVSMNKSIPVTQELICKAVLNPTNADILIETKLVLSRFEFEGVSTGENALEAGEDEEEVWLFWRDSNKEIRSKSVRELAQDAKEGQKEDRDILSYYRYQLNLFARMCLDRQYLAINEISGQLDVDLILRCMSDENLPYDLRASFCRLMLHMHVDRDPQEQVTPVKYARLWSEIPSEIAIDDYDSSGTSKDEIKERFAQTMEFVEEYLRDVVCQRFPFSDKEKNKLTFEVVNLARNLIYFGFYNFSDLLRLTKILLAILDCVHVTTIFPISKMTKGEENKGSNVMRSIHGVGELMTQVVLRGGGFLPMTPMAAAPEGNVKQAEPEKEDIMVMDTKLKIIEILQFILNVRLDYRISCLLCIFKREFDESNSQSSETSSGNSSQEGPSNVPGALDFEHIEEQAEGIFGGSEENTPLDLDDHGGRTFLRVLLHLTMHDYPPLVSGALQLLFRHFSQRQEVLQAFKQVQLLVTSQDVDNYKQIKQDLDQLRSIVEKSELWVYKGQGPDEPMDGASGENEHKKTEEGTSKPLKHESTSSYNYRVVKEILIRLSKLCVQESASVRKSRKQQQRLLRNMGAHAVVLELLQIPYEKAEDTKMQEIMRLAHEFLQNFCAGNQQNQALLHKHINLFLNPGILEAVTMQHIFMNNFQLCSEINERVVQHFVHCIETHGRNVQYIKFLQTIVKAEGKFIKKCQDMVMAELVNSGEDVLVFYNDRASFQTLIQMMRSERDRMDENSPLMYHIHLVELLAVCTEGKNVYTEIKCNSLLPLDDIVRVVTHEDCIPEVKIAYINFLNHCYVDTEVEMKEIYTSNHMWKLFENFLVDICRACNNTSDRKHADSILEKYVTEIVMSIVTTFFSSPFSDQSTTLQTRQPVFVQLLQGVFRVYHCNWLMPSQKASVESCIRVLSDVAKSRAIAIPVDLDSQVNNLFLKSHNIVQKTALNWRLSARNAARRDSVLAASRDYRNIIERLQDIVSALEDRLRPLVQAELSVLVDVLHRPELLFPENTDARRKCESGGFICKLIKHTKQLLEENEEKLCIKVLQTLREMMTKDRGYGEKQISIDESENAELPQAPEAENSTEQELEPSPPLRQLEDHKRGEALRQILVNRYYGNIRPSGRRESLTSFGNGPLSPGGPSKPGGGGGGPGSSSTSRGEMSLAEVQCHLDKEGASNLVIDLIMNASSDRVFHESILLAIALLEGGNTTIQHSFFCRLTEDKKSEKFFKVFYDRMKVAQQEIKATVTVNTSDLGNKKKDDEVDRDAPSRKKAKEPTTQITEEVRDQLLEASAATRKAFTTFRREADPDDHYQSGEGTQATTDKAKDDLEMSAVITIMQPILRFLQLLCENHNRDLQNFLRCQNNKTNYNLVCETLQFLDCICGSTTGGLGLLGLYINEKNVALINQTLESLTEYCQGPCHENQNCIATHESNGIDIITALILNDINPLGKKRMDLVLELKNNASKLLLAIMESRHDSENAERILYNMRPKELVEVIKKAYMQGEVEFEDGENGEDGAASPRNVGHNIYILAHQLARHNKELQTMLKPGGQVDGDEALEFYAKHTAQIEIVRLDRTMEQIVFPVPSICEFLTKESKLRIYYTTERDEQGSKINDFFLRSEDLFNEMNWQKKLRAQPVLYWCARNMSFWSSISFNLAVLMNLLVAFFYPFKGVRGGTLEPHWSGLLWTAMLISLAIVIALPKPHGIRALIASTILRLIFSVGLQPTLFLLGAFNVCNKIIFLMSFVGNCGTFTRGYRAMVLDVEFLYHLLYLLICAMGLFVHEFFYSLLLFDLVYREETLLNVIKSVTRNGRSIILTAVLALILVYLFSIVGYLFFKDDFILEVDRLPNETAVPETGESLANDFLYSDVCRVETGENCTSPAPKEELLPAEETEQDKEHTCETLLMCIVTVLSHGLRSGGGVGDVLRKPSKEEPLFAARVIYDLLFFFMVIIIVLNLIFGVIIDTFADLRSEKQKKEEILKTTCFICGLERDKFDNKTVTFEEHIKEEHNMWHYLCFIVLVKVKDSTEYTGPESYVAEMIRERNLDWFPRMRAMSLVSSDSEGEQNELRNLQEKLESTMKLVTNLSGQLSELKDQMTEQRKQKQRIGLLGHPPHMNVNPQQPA

T1 sequence (P35968 20-1356): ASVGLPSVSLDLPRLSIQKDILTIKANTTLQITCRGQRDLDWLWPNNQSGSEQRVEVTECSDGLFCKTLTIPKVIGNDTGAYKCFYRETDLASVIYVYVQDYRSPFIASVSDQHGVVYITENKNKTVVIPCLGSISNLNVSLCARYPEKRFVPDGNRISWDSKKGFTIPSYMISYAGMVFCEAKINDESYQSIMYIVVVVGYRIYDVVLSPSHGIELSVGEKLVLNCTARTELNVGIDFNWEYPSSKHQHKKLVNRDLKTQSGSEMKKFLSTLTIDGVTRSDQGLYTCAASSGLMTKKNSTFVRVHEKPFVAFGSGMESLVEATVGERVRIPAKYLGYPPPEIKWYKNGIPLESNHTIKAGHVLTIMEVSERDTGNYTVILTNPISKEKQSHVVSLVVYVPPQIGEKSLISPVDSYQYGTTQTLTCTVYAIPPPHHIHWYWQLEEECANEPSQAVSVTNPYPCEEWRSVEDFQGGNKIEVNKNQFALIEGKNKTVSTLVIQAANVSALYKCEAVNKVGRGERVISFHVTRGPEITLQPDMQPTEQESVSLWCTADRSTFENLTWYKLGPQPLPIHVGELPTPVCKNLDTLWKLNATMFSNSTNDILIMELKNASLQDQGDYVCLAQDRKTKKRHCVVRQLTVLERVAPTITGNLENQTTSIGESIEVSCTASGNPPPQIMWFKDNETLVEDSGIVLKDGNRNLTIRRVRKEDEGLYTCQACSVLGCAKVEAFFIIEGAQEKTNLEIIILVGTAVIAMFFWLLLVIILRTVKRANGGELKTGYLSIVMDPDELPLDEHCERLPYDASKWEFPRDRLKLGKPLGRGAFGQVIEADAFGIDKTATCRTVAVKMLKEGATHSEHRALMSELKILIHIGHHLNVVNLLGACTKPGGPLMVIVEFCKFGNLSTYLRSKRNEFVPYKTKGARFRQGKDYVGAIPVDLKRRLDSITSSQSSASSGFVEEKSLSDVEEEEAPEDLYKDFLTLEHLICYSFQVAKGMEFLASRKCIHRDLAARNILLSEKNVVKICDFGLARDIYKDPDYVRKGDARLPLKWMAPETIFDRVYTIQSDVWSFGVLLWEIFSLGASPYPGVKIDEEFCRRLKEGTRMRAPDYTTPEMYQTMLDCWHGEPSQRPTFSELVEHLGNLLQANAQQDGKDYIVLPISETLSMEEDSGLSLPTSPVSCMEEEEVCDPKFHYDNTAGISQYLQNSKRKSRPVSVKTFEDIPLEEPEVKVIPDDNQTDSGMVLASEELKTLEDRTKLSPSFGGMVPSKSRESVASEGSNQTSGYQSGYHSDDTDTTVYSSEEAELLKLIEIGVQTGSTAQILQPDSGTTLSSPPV

binding result [1]: binds
B1: Epsin 1 (endogenous, HUVEC^αvβ3 cells) (other, human, UniProt Q9Y6I3 1-576, looked up)
chain: MSTSSLRRQMKNIVHNYSEAEIKVREATSNDPWGPSSSLMSEIADLTYNVVAFSEIMSMIWKRLNDHGKNWRHVYKAMTLMEYLIKTGSERVSQQCKENMYAVQTLKDFQYVDRDGKDQGVNVREKAKQLVALLRDEDRLREERAHALKTKEKLAQTATASSAAVGSGPPPEAEQAWPQSSGEEELQLQLALAMSKEEADQPPSCGPEDDAQLQLALSLSREEHDKEERIRRGDDLRLQMAIEESKRETGGKEESSLMDLADVFTAPAPAPTTDPWGGPAPMAAAVPTAAPTSDPWGGPPVPPAADPWGGPAPTPASGDPWRPAAPAGPSVDPWGGTPAPAAGEGPTPDPWGSSDGGVPVSGPSASDPWTPAPAFSDPWGGSPAKPSTNGTTAAGGFDTEPDEFSDFDRLRTALPTSGSSAGELELLAGEVPARSPGAFDMSGVRGSLAEAVGSPPPAATPTPTPPTRKTPESFLGPNAALVDLDSLVSRPGPTPPGAKASNPFLPGGGPATGPSVTNPFQPAPPATLTLNQLRLSPVPPVPGAPPTYISPLGGGPGLPPMMPPGPPAPNTNPFLL
notes: also called endogenous epsin 1

binding result [2]: binds
binding result [3]: binds
B2: Epsin 1 (endogenous, MAEC and 3T3-L1 cells) (other, mouse, UniProt Q80VP1 1-575, looked up)
chain: MSTSSLRRQMKNIVHNYSEAEIKVREATSNDPWGPSSSLMSEIADLTYNVVAFSEIMSMIWKRLNDHGKNWRHVYKAMTLMEYLIKTGSERVSQQCKENMYAVQTLKDFQYVDRDGKDQGVNVREKAKQLVALLRDEDRLREERAHALKTKEKLAQTATASSAAVGSGPPPEAEQAWPQSSGEEELQLQLALAMSKEEADQPPSCGPEDDVQLQLALSLSREEHDKEERIRRGDDLRLQMAIEESKRETGGKEESSLMDLADVFTTPAPPQASDPWGGPASVPTAVPVAAAASDPWGGPAVPPAADPWGGAAPTPASGDPWRPAAPTGPSVDPWGGTPAPAAGEGPTPDPWGSSDGGAPVSGPPSSDPWAPAPAFSDPWGGSPAKPSSNGTAVGGFDTEPDEFSDFDRLRTALPTSGSSTGELELLAGEVPARSPGAFDMSGVGGSLAESVGSPPPAATPTPTPPTRKTPESFLGPNAALVDLDSLVSRPGPTPPGSKASNPFLPSGAPPTGPSVTNPFQPAPPATLTLNQLRLSPVPPVPGAPPTYISPLGGGPGLPPMMPPGPPAPNTNPFLL
notes: also called epsins
